# Test results: US20230250176A1 (DRAGONFLY THERAPEUTICS, published 2023)
# Read-outs that look alike come from different tables or passages of the source.
# T1: human NKG2D on cells (human, UniProt P26718 1-216)
# T1 sequence (looked up): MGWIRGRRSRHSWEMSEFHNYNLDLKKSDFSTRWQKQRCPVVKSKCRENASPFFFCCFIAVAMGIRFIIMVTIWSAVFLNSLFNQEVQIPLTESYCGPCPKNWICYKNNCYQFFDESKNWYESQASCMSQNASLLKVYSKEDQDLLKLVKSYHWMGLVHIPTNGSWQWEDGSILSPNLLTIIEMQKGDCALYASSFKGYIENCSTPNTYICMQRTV
# B1: EGFR-TriNKET (bispecific antibody, human IgG1, kappa)
# chain: DIQMTQSPSSLSASVGDRVTITCQASQDISNYLNWYQQKPGKAPKLLIYDASNLETGVPSRFSGSGSGTDFTFTISSLQPEDIATYYCQHFRHLPLAFGCGTKVEIKGGGGSGGGGSGGGGSGGGGSQVQLQESGPGLVKPSETLSLTCTVSGGSVSSGDYYWTWIRQSPGKCLEWIGHIYYSGNTNYNPRLKSRLTISIDTSKTQFSLKLSSVTAADTAIYYCVRDRVTGAFDIWGQGTMVTVSSGSDKTHTCPPCPAPELLGGPSVFLFPPKPKDTLMISRTPEVTCVVVDVSHEDPEVKFNWYVDGVEVHNAKTKPREEQYNSTYRVVSVLTVLHQDWLNGKEYKCKVSNKALPAPIEKTISKAKGQPREPRVYTLPPCRDELTKNQVSLTCLVKGFYPSDIAVEWESNGQPENNYKTTPPVLVSDGSFTLYSKLTVDKSRWQQGNVFSCSVMHEALHNHYTQKSLSLSPG
# heavy: EVQLVESGGGLVKPGGSLRLSCAASGFTFSSYSMNWVRQAPGKGLEWVSSISSSSSYIYYADSVKGRFTISRDNAKNSLYLQMNSLRAEDTAVYYCARGAPIGAAAGWFDPWGQGTLVTVSSASTKGPSVFPLAPSSKSTSGGTAALGCLVKDYFPEPVTVSWNSGALTSGVHTFPAVLQSSGLYSLSSVVTVPSSSLGTQTYICNVNHKPSNTKVDKKVEPKSCDKTHTCPPCPAPELLGGPSVFLFPPKPKDTLMISRTPEVTCVVVDVSHEDPEVKFNWYVDGVEVHNAKTKPREEQYNSTYRVVSVLTVLHQDWLNGKEYKCKVSNKALPAPIEKTISKAKGQPREPQVCTLPPSRDELTENQVSLTCLVKGFYPSDIAVEWESNGQPENNYKTTPPVLDSDGSFFLYSWLTVDKSRWQQGNVFSCSVMHEALHNHYTQKSLSLSPG
# light: DIQMTQSPSSVSASVGDRVTITCRASQGISSWLAWYQQKPGKAPKLLIYAASSLQSGVPSRFSGSGSGTDFTLTISSLQPEDFATYYCQQGVSFPRTFGGGTKVEIKRTVAAPSVFIFPPSDEQLKSGTASVVCLLNNFYPREAKVQWKVDNALQSGNSQESVTEQDSKDSTYSLSSTLTLSKADYEKHKVYACEVTHQGLSSPVTKSFNRGEC
# notes: also called EGFR-TriNKET-3
# Experiments:
# [1] = target: T2, human EGFR (wild type) on cells (human, UniProt P00533 25-1210); experiment: flow cytometry, 786-O cells
# T2 construct: whole, on cells; also called EGFRwt
# [2] = target: T3, purified recombinant human EGFR (human, UniProt P00533 25-645); experiment: SPR (Biacore 8K), 37 C
# T3 construct: the whole entry is named; also called recombinant human epidermal growth factor receptor
# [3] = target: T2, human EGFR (wild type) on cells; experiment: flow cytometry, Detroit 562 cells
# [4] = target: T2, human EGFR (wild type) on cells; experiment: flow cytometry, BT474 cells
# [5] = target: T2, human EGFR (wild type) on cells; experiment: flow cytometry, KYSE-30 cells
# [6] = target: T2, human EGFR (wild type) on cells; experiment: flow cytometry, HT29 cells
# [7] = target: T2, human EGFR (wild type) on cells; experiment: flow cytometry, FaDu cells
# [8] = target: T2, human EGFR (wild type) on cells; experiment: flow cytometry, NCI-H292 cells
# [9] = target: T4, human EGFR T790M, L858R on NCI-H1975 cells (human, UniProt P00533 25-1210); experiment: cell-based or functional assay
# [10] = target: T2, human EGFR (wild type) on cells; experiment: cell-based or functional assay
# human NKG2D on cells [11] = target: T1, human NKG2D on cells; experiment: cell-based or functional assay
# [12] = target: T5, purified recombinant human FcRn (human, UniProt P55899 24-297; P61769 21-119); experiment: SPR (Biacore 8K), 25 C, pH 6.0; pH 6.0
# T5 construct: also called neonatal Fc receptor
# [13] = target: T3, purified recombinant human EGFR; experiment: SPR (Biacore 8K), 37 C; remark: listed apart in the source
# [14] = target: T2, human EGFR (wild type) on cells; experiment: flow cytometry, NCI-H1703 cells
# [15] = target: T6, human EGFR L747-E749del, A750P on HCC4006 cells (human, UniProt P00533 25-1210); experiment: flow cytometry, HCC4006 cells
# T6 construct: whole, on cells; The deletion L747-E749 cannot be written as a substitution; it stands under detail; also called EGFRmut L747-E749del, A750P
# [16] = target: T7, cynomolgus monkey EGFR on primary cynomolgus monkey esophageal epithelial cells (cynomolgus monkey, UniProt A0A2K5WK39 25-1210); experiment: flow cytometry on primary cynomolgus monkey esophageal epithelial cells, anti-human Fc-PE secondary
# T7 construct: whole, on cells; also called cynomolgus monkey EGFR-expressing cells
# [17] = target: T2, human EGFR (wild type) on cells; experiment: cell-based or functional assay; remark: listed apart in the source
# [18] = target: T3, purified recombinant human EGFR; experiment: SPR (Biacore 8K), 37 C; remark: listed apart in the source
# cynomolgus monkey FcRn = cynomolgus monkey FcRn (cynomolgus monkey, UniProt Q8SPV9 24-297; Q8SPW0 21-119, limits assumed); experiment: SPR, pH 6.0; pH 6.0
# [19] = target: T4, human EGFR T790M, L858R on NCI-H1975 …; experiment: cell-based or functional assay; remark: listed apart in the source
# [20] = target: T2, human EGFR (wild type) on cells; experiment: cell-based or functional assay; remark: listed apart in the source
# [21] = target: T4, human EGFR T790M, L858R on NCI-H1975 …; experiment: cell-based or functional assay; remark: listed apart in the source
# [22] = target: T6, human EGFR L747-E749del, A750P on …; experiment: cell-based or functional assay
# [23] = target: T2, human EGFR (wild type) on cells; experiment: cell-based or functional assay; remark: listed apart in the source
# human NKG2D on cells [24] = target: T1, human NKG2D on cells; experiment: flow cytometry with AF647-conjugated test article on KHYG-1 parental cells (NKG2D, no CD16a); KHYG-1 parental cell line (NKG2D+, CD16a-), titrated from 800 nM
binder,measurement,setting,value
B1,EC50,[1],3.5 nM
same,Max FOB,[1],330 fold over background
same,Kd,[2],4.7 nM
same,koff,[2],0.00095 s⁻¹
same,kon,[2],200000 M⁻¹ s⁻¹
same,EC50,[3],1.6 nM
same,Max FOB,[3],490 fold over background
same,EC50,[4],0.77 nM
same,Max FOB,[4],41 fold over background
same,EC50,[5],11 nM
same,Max FOB,[5],1800 fold over background
same,EC50,[6],1.3 nM
same,Max FOB,[6],340 fold over background
same,EC50,[7],11 nM
same,Max FOB,[7],1200 fold over background
same,EC50,[8],5.3 nM
same,Max FOB,[8],800 fold over background
same,"EC50, ADCP by M0 macrophages, NCI-H1975",[9],2.3 nM
same,"EC50, ADCP by M0 macrophages, 786-O",[10],2.2 nM
same,"EC50, IFNγ release from NK cells (AlphaLISA) in the presence of HT29 cells",human NKG2D on cells [11],1.6 nM
same,"EC50, IFNγ release from NK cells (AlphaLISA) in the presence of NCI-H1975 cells",human NKG2D on cells [11],0.88 nM
same,Kd,[12],1000 nM
same,fold weaker affinity than panitumumab,[13],4.7 fold
same,EC50,[14],4.6 nM
same,Max FOB,[14],730 fold over background
same,EC50,[15],1.8 nM
same,Max FOB,[15],160 fold over background
same,EC50,[16],1.09 nM
same,"EC50 of growth inhibition at 72 hours (IncuCyte), human primary keratinocytes, against cetuximab",[17],60 fold
same,"EC50 of inhibition of EGF-induced EGFR phosphorylation (AlphaLISA), human primary keratinocytes",[17],5.3 nM
same,"EC50 of tumor cell growth inhibition over 72 hours (IncuCyte), NCI-H292-NucLight Green or FaDu cells",[17],1.7 to 3.9 nM
same,Kd,[18],4.7 nM
same,koff,[18],0.00095 s⁻¹
same,kon,[18],200000 M⁻¹ s⁻¹
same,Kd,cynomolgus monkey FcRn,900 nM
same,"EC50, NK cell degranulation and cytokine production, human PBMCs with NCI-H1975",[19],0.067 nM
same,"EC50, NK cell degranulation and cytokine production, human PBMCs with 786-O",[20],0.089 nM
same,"EC50, short-term NK cell-mediated cytotoxicity (DELFIA), NCI-H1975",[21],0.1 nM
same,"EC50, short-term NK cell-mediated cytotoxicity (DELFIA), HCC4006",[22],0.092 nM
same,"EC50, short-term NK cell-mediated cytotoxicity (DELFIA), 786-O",[23],0.048 nM
same,"EC50, short-term NK cell-mediated cytotoxicity (DELFIA), BT474",[23],0.29 nM
same,"EC50, short-term NK cell-mediated cytotoxicity (DELFIA), Detroit 562",[23],0.058 nM
same,"EC50, short-term NK cell-mediated cytotoxicity (DELFIA), FaDu",[23],0.011 nM
same,"EC50, short-term NK cell-mediated cytotoxicity (DELFIA), HCT116",[23],0.054 nM
same,"EC50, short-term NK cell-mediated cytotoxicity (DELFIA), HT29",[23],0.019 nM
same,"EC50, short-term NK cell-mediated cytotoxicity (DELFIA), KYSE-30",[23],0.0053 nM
same,"EC50, short-term NK cell-mediated cytotoxicity (DELFIA), NCI-H292",[23],0.0088 nM
same,"EC50, short-term NK cell-mediated cytotoxicity (DELFIA), NCI-H1703",[23],0.022 nM
same,"EC50, short-term NK cell-mediated cytotoxicity (DELFIA), NCI-H2172",[23],0.079 nM
same,EC50,human NKG2D on cells [24],> 600 nM
